From the supplement of paper PMC10567573

B1: TMEM175 (parent)
chain: SCTIIFLASIFQLAMWTTALLHQA
B2: TBX5 (parent)
chain: FHEVGTEMIITKAGRRMFPSYKVK

Variants of: B1
Assay: protein stability index of a GFP-peptide fusion (GPS, HEK-293T) (PSI 1-6); higher = more stable
Details: c terminus: a fixed tail appended
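Also: lentivirally expressed fusions sorted by FACS into six bins by GFP to DsRed ratio, PSI derived from sequencing read proportions per bin multiplied by bin number.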

Variant	protein stability index
SCTIIFLASIFQLYMWTTALLHQA	4
SCTIIFLASIFQLKMWTTALLHQA	3.08
SCTIIFLASIFQLPMWTTALLHQA	2.29
SCTIIFLASIFQLCMWTTALLHQA	3.07
SCTIIFLASIFQLAMWTTALLHQW	3.03
SCTIIFLASIFQLAMWTTALLHQN	2.45
SCTIIFLASIFQLAMWTTALLHQH	2.67
SCTIIFLASIFQLAMWTTALLHQC	3.39
SCTIIFLASIFQLAMWTTALLHQD	4.05
SATIIFLASIFQLAMWTTALLHQA	3.34
SWTIIFLASIFQLAMWTTALLHQA	2.26
SITIIFLASIFQLAMWTTALLHQA	1.73
SNTIIFLASIFQLAMWTTALLHQA	4.36
SCTIIFLASIFQLALWTTALLHQA	2.53
SCTIIFLASIFQVAMWTTALLHQA	3.31
SCTIIFLASIFQCAMWTTALLHQA	2.76
SCTIIFLASIFQMAMWTTALLHQA	2.97
SCTIIFLASIFQHAMWTTALLHQA	3.13
SCTIIFLASIFQLAMWTPALLHQA	3.36
SCTIIFLASIFQLAMWTCALLHQA	3.17
SCTIIFLASIFQLAMWTGALLHQA	1.6
SCTIIFLASIFQLAMWTIALLHQA	2.16
SCTIIFLASIFQLAMWTTALLIQA	4.4
SCTIIFLASIFMLAMWTTALLHQA	2.6
SCTIIFLASIFALAMWTTALLHQA	3.29

Variant	protein stability index
SCTIIFLASIFQLAMWTTFLLHQA	3.13
SCTIIFLASIFQLAMWTTVLLHQA	2.43
SCTIIFLASIFQLAMWTTYLLHQA	2.1
SCTIIFLASIFQLAMWTTALMHQA	2.73
SCTIIFLASIFQLAMWTTALYHQA	3.71
SCTIIFLASSFQLAMWTTALLHQA	2.97
SCTIIFLASRFQLAMWTTALLHQA	2.81
SCTIIFLASAFQLAMWTTALLHQA	3.45
SCTIIFLGSIFQLAMWTTALLHQA	3.09
SCTFIFLASIFQLAMWTTALLHQA	2.9
SCTYIFLASIFQLAMWTTALLHQA	2.23
SCTIIFLASIPQLAMWTTALLHQA	2.96
SCTIIFLASILQLAMWTTALLHQA	2.74
SCTIIFLASINQLAMWTTALLHQA	2.97
SCTIIFLASIWQLAMWTTALLHQA	2.6
SCTIVFLASIFQLAMWTTALLHQA	1.82
SCTIIFLANIFQLAMWTTALLHQA	3.06
SCTIIFLASIFQLAMWTTARLHQA	3.39
SCTIIFLASIFQLAMWTTAILHQA	3.51
NCTIIFLASIFQLAMWTTALLHQA	2.02
ACTIIFLASIFQLAMWTTALLHQA	2.72
SCTIIFIASIFQLAMWTTALLHQA	3.83
SCTIIFLASIFQLAMCTTALLHQA	3.44
SCTIIFLASIFQLAMGTTALLHQA	2.72
SCTIIFLASIFQLAMRTTALLHQA	2.51

Variants of: B2
Assay: as above
Details: c terminus: a fixed tail appended

Variant	protein stability index
FHEVGTEMIITKAGRRMPPSYKVK	2.11
FHEVGTEMIITKAGRRMRPSYKVK	1.76
FHEVGTEMIITKAGRRMEPSYKVK	2.34
FHEVGTEMIITKAGRRMKPSYKVK	1.94
FHEVGTEMIITKAGRRMWPSYKVK	1.8
FHEVGTEMIITKAGRRMNPSYKVK	2.07
FHEVGTEMIITKAGRRMQPSYKVK	2.58
FHEVGTEMIITKAGRRMFPSYKVH	1.59
FHEVGTEMIITKAGRRMFPSYKVC	2.62
FHEVGTEMIITKAGRRMFPSYKVY	2.08
FHEVGTEMIITKAGRRMFPSYKVA	1.99
FHEVGTEMIITKAGRRMFPSYKVD	2.2
FHEVGTEMIDTKAGRRMFPSYKVK	3.5
FHEVGTEMIFTKAGRRMFPSYKVK	3.28
FHEVGTEMIKTKAGRRMFPSYKVK	2.84
FHEVGTEMIYTKAGRRMFPSYKVK	1.48
FHEVGTEMICTKAGRRMFPSYKVK	2.41
FHEVGTEMILTKAGRRMFPSYKVK	2.21
FHEVGTEMIRTKAGRRMFPSYKVK	2.21
FHEKGTEMIITKAGRRMFPSYKVK	1.98
FHEAGTEMIITKAGRRMFPSYKVK	1.97
FHEQGTEMIITKAGRRMFPSYKVK	1.96
FHEYGTEMIITKAGRRMFPSYKVK	2.46

Variant	protein stability index
IHEVGTEMIITKAGRRMFPSYKVK	2.44
KHEVGTEMIITKAGRRMFPSYKVK	3.54
EHEVGTEMIITKAGRRMFPSYKVK	3.68
QHEVGTEMIITKAGRRMFPSYKVK	3.25
PHEVGTEMIITKAGRRMFPSYKVK	3.5
CHEVGTEMIITKAGRRMFPSYKVK	2.18
VHEVGTEMIITKAGRRMFPSYKVK	2.58
FHEVGCEMIITKAGRRMFPSYKVK	1.52
FHEVGYEMIITKAGRRMFPSYKVK	1.56
FHEVGMEMIITKAGRRMFPSYKVK	1.37
FHEVGAEMIITKAGRRMFPSYKVK	1.93
FHEVGGEMIITKAGRRMFPSYKVK	2.9
FHEVGLEMIITKAGRRMFPSYKVK	3.1
FHEVGWEMIITKAGRRMFPSYKVK	2.13
FHEVGHEMIITKAGRRMFPSYKVK	2.01
FHEVGSEMIITKAGRRMFPSYKVK	2.21
FHEVGTEMIITKAGRRMFPSYKCK	1.84
FHEVGTEMIITKAGRRMFPSYKAK	2.35
FHEVGTEMIITKAGRRMFPSYKSK	2.27
FHEVGTEMIITKAGRRMFPSYKIK	1.97
FHEVGTEMIITKAGRRMFPSYKPK	2.8
FHEVGTEMIITKAGRRMFPSYKGK	2.9
FHEVGTEMIITKAGRRMFPSYKEK	2.5

Variant	protein stability index
FHEVGTTMIITKAGRRMFPSYKVK	1.87
FHEVGTWMIITKAGRRMFPSYKVK	2.06
FHEVGTDMIITKAGRRMFPSYKVK	1.81
FHEVGTQMIITKAGRRMFPSYKVK	1.81
FHEVGTPMIITKAGRRMFPSYKVK	1.71
FHEVGTNMIITKAGRRMFPSYKVK	1.88
FHEVGTMMIITKAGRRMFPSYKVK	1.49
FHEVGTEMIITKAGRRMFCSYKVK	2.53
FHEVGTEMIITKAGRRMFMSYKVK	1.4
FHEVGTEMIITKAGRRMFWSYKVK	1.75
FHEVGTEMIITKAGRRMFASYKVK	2
FHEVGTEMIITKAGRRMFVSYKVK	1.77
FHEVGTEMIITKAGRRMFQSYKVK	1.98
FHEVGTEMIITKAGRRMFTSYKVK	2.1
FHEVGTEMIITKAGRRMFSSYKVK	2.72
FHEVVTEMIITKAGRRMFPSYKVK	1.23
FHEVTTEMIITKAGRRMFPSYKVK	1.92
FHEVLTEMIITKAGRRMFPSYKVK	1.92
FHEVCTEMIITKAGRRMFPSYKVK	2.02
FHEVYTEMIITKAGRRMFPSYKVK	1.49
FHEVMTEMIITKAGRRMFPSYKVK	1.69
FHEVKTEMIITKAGRRMFPSYKVK	1.88
FHEVGTEMIITKAGRMMFPSYKVK	1.96

Variant	protein stability index
FHEVGTEMIITKAGRQMFPSYKVK	1.85
FHEVGTEMIITKAGRHMFPSYKVK	2.02
FHEVGTEMIITKAGRPMFPSYKVK	2.11
FHEVGTEMIITKAGRCMFPSYKVK	1.59
FHEVGTEMIITKAGRAMFPSYKVK	1.91
FHEVGTEMIITGAGRRMFPSYKVK	2.1
FHEVGTEMIITHAGRRMFPSYKVK	1.8
FHEVGTEMIITNAGRRMFPSYKVK	2.1
FHEVGTEMIITLAGRRMFPSYKVK	2.81
FHEVGTEMIITAAGRRMFPSYKVK	2.52
FHEVGTEMIITRAGRRMFPSYKVK	2.02
FHEVGTEMIITTAGRRMFPSYKVK	1.78
FHEVGTEMIITIAGRRMFPSYKVK	1.6
FHEVGTEMIITFAGRRMFPSYKVK	2.76
FHEVGTEMIITKAGRRTFPSYKVK	1.98
FHEVGTEMIITKAGRRHFPSYKVK	1.71
FHEVGTEMIITKAGRRAFPSYKVK	2.38
FHEVGTEMIITKAGRRLFPSYKVK	2.27
FPEVGTEMIITKAGRRMFPSYKVK	2.27
FSEVGTEMIITKAGRRMFPSYKVK	2.53
FGEVGTEMIITKAGRRMFPSYKVK	2.48
FEEVGTEMIITKAGRRMFPSYKVK	3.09
FTEVGTEMIITKAGRRMFPSYKVK	1.85

Variant	protein stability index
FCEVGTEMIITKAGRRMFPSYKVK	1.72
FHEVGTEMIITKAGRRMFPSYTVK	1.51
FHEVGTEMIITKAGRRMFPSYYVK	2.89
FHEVGTEMIITKAGRRMFPSYMVK	2.01
FHEVGTEMIITKAGRRMFPSYEVK	1.9
FHEVGTEMIITKAGRRMFPSYRVK	2.45
FHEVGTEMQITKAGRRMFPSYKVK	2.5
FHEVGTEMSITKAGRRMFPSYKVK	2.29
FHEVGTEMPITKAGRRMFPSYKVK	2.75
FHEVGTEMAITKAGRRMFPSYKVK	2.38
FHEVGTEMIITKATRRMFPSYKVK	2.42
FHEVGTEMIITKAQRRMFPSYKVK	2.17
FHEVGTEMIITKALRRMFPSYKVK	1.71
FHDVGTEMIITKAGRRMFPSYKVK	1.26
FHQVGTEMIITKAGRRMFPSYKVK	1.8
FHFVGTEMIITKAGRRMFPSYKVK	2.39
FHHVGTEMIITKAGRRMFPSYKVK	1.06
FHEVGTEMIITKAGVRMFPSYKVK	1.72
FHEVGTEMIITKAGMRMFPSYKVK	1.59
FHEVGTEMIITKAGNRMFPSYKVK	2.29
FHEVGTEMIITKAGFRMFPSYKVK	1.91
FHEVGTEMIITKAGIRMFPSYKVK	1.83
FHEVGTEMIITKAGDRMFPSYKVK	2.71

Variant	protein stability index
FHEVGTEMIITKAGARMFPSYKVK	2.18
FHEVGTECIITKAGRRMFPSYKVK	2.09
FHEVGTEGIITKAGRRMFPSYKVK	1.93
FHEVGTESIITKAGRRMFPSYKVK	2.34
FHEVGTEHIITKAGRRMFPSYKVK	2.33
FHEVGTEKIITKAGRRMFPSYKVK	2.68
FHEVGTEEIITKAGRRMFPSYKVK	3.03
FHEVGTEMIITKAGRRMFPPYKVK	2.42
FHEVGTEMIITKAGRRMFPLYKVK	1.86
FHEVGTEMIIPKAGRRMFPSYKVK	2.28
FHEVGTEMIIVKAGRRMFPSYKVK	1.76
FHEVGTEMIILKAGRRMFPSYKVK	2.14
FHEVGTEMIIYKAGRRMFPSYKVK	1.02
FHEVGTEMIITKAGRRMFPSEKVK	2.92
FHEVGTEMIITKAGRRMFPSHKVK	3.03
FHEVGTEMIITKAGRRMFPSMKVK	1.95
FHEVGTEMIITKAGRRMFPSKKVK	2.21
FHEVGTEMIITKYGRRMFPSYKVK	1.55
FHEVGTEMIITKLGRRMFPSYKVK	2.61
FHEVGTEMIITKCGRRMFPSYKVK	2.03
FHEVGTEMIITKWGRRMFPSYKVK	1.93
FHEVGTEMIITKFGRRMFPSYKVK	1.97
FHEVGTEMIITKHGRRMFPSYKVK	2.11
